No end group written: not given here.
Columns and labels:
Details in all cases: both partners purified
UBXD1-wt (1-441) = biological target: T1, UBXD1-wt (1-441) (human, UniProt Q9BZV1 1-441); assay: fluorescence polarisation; displacement titration: UBXD1 incubated with 0.1 µM 5,6-FAM-p97-C10 peptide to 50% saturation, concentration of p97 successively increased; competitive binding model; 50 mM NaKPi buffer, pH 7.5, 25 °C
T1 construct: also called UBXD1-fl; UBXN6; not shown: GST, N-terminal, cleaved
T1 sequence (looked up): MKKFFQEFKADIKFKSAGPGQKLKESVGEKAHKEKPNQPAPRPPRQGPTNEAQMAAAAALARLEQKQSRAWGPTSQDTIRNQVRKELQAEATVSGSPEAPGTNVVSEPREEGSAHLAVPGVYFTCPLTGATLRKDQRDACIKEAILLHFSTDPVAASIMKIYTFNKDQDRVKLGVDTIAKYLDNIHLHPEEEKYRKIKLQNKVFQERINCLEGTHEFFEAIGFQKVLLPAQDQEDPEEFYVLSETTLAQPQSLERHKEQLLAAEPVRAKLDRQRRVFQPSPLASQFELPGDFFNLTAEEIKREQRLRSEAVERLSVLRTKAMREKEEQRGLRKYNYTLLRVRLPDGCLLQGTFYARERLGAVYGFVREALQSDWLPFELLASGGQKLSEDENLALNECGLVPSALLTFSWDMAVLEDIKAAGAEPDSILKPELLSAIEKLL

p97 wild type (1-806) = biological target: T2, p97 wild type (1-806) (UniProt P55072 1-806); assay: fluorescence polarisation; fluorescence anisotropy titration of Atto594-labelled UBXD1 construct with p97 construct; 50 mM NaKPi buffer, pH 7.5, 25 °C; fitted with the stoichiometry 1:1
T2 construct: p97/VCP, residues 1-806; also called p97-wt; p97-fl; source: E. coli BL21 DE3 (T1r), purified (Ni-NTA, anion exchange)
T2 sequence (P55072 whole entry, the tested form may be a part): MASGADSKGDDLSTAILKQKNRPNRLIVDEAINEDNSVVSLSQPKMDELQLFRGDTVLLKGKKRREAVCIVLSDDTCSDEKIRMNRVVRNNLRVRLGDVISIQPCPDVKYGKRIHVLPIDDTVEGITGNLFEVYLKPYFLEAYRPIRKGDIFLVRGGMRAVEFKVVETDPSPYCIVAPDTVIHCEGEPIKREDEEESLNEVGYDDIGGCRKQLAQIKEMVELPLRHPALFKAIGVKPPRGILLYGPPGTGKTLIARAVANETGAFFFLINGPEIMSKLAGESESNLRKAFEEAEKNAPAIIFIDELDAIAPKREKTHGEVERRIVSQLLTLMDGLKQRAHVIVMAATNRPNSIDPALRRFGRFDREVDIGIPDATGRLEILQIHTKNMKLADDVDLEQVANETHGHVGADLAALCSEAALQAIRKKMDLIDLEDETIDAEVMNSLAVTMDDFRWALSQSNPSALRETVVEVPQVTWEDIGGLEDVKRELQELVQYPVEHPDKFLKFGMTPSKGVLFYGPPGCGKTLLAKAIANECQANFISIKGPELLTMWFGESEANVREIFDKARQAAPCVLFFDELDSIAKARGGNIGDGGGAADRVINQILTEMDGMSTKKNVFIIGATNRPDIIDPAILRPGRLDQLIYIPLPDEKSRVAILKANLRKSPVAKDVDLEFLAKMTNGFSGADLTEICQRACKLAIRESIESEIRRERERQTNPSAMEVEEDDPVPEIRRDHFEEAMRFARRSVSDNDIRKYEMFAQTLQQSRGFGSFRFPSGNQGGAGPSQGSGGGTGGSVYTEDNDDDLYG

UBXD1-PUB (150-264) = biological target: T3, UBXD1-PUB (150-264) (human, UniProt Q9BZV1 150-264); assay: NMR titration; 1H-15N-HSQC of 15N-HR23b-UBL (200 µM), UBXD1-PUB added stepwise to 400 µM; 50 mM sodium potassium phosphate, pH 7.5, 25 °C
T3 construct: UBXD1 (UBXN6), human, PUB domain, residues 150-264; also called His6-UBXD1-PUB; source: E. coli Rosetta2, purified (Ni-NTA, thrombin cleavage, SEC); unlabelled or 15N-labelled; not shown: His6, N-terminal, cleaved
T3 sequence (looked up): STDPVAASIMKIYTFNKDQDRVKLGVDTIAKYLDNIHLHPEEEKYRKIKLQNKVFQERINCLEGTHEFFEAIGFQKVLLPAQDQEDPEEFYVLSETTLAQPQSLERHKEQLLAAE

[1] = biological target: T4, ubiquitin-GST fusion protein (Ub-GST) (UniProt P0CG48 1-76); assay: pull-down; 50 μM ubiquitin-GST, 2.5 μM p97 (hexamer) and 5 μM UBXD1 variant with GSH beads, 30 min, 4 °C, 50 mM Tris pH 7.4, 150 mM KCl, 1% Triton-X-100
T4 construct: source: E. coli BL21 DE3 (T1r), purified

p97-N (1–199) = biological target: T5, p97-N (1–199) (UniProt P55072 1-199); assay: fluorescence polarisation; fluorescence anisotropy; Atto594-labeled UBXD1 proteins, p97 constructs titrated; 50 mM NaKPi pH 7.5, 25 °C; all fitted with stoichiometry n = 1
T5 construct: p97/VCP, N-domain, residues 1-199; also called N-domain of p97; source: E. coli BL21 DE3 (T1r) (pET28a), purified
T5 sequence (P55072 1-199): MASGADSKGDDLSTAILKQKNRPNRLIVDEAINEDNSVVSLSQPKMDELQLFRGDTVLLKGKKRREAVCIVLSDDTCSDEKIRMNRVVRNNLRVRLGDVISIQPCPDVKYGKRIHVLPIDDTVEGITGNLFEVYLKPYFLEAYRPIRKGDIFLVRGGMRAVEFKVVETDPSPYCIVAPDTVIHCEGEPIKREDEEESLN

[2] = biological target: T6, UBXD1 (1–441), recombinant, purified (human, UniProt Q9BZV1 1-441); assay: fluorescence polarisation; direct anisotropy titration of 5,6-FAM-p97-C10 peptide (0.1 µM in the displacement set-up) with UBXD1
T6 construct: also called UBXD1-wt; UBXD1-fl; not shown: GST, N-terminal, cleaved
T6 sequence (looked up): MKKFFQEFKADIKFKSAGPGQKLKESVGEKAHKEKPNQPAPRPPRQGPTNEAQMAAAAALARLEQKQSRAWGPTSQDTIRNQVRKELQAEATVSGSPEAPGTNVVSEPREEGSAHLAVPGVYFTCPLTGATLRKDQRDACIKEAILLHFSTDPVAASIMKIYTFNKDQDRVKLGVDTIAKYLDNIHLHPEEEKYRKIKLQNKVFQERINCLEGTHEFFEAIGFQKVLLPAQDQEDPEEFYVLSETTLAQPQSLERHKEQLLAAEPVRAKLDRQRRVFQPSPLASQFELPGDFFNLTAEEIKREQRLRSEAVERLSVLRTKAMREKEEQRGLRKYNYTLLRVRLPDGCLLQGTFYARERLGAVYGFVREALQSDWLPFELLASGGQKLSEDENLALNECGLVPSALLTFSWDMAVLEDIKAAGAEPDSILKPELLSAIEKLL

UBXD1-PUB (150–264) = biological target: T7, UBXD1-PUB (150–264) (human, UniProt Q9BZV1 150-264); assay: NMR titration; 1H-15N-HSQC: 15N-UBXD1-PUB (400 µM) with HR23b-UBL (0 to 1300 µM), and the reverse titration of 15N-HR23b-UBL with UBXD1-PUB; 25 °C
T7 construct: UBXD1 (UBXN6), human, PUB domain, residues 150-264; 15N-labelled for some NMR titrations; also called isolated PUB domain; His-UBXD1-PUB; source: E. coli Rosetta2, purified (Ni-NTA, thrombin cleavage, SEC); not shown: His6, N-terminal, cleaved
T7 sequence (looked up): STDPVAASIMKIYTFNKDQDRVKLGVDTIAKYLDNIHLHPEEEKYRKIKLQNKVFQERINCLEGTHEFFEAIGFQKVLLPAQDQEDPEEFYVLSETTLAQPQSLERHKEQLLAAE

## {5,6‑FAM}-TEDNDDDLYG (p97/VCP C-terminal residues 797-806)
UBXD1-wt (1-441)
  binding result: binds

B1: UBXD1-ΔUBX-C (1-332), Atto594-labelled (domain or fragment, human, UniProt Q9BZV1 1-332, looked up)
chain: MKKFFQEFKADIKFKSAGPGQKLKESVGEKAHKEKPNQPAPRPPRQGPTNEAQMAAAAALARLEQKQSRAWGPTSQDTIRNQVRKELQAEATVSGSPEAPGTNVVSEPREEGSAHLAVPGVYFTCPLTGATLRKDQRDACIKEAILLHFSTDPVAASIMKIYTFNKDQDRVKLGVDTIAKYLDNIHLHPEEEKYRKIKLQNKVFQERINCLEGTHEFFEAIGFQKVLLPAQDQEDPEEFYVLSETTLAQPQSLERHKEQLLAAEPVRAKLDRQRRVFQPSPLASQFELPGDFFNLTAEEIKREQRLRSEAVERLSVLRTKAMREKEEQRGLR
modifications: Atto594 (NHS ester labelling)
notes: the methods say that the UBXD1 proteins were labelled with Atto594-NHS ester for anisotropy; not shown: GST, N-terminal, cleaved
p97 wild type (1-806)
  Kd: 5.5 ± 0.2 µM

B2: HR23b-UBL (1-78) (domain or fragment)
chain: not shown
notes: also called HR23b-UBL wt; 15N-HR23b-UBL; source: unlabelled or 15N-labelled; not shown: GST, N-terminal, cleaved
UBXD1-PUB (150-264)
  binding result: binds

B3: UBXD1 E368A/D373A (full length, recombinant) (natural protein, human, UniProt Q9BZV1 1-441, looked up)
chain: MKKFFQEFKADIKFKSAGPGQKLKESVGEKAHKEKPNQPAPRPPRQGPTNEAQMAAAAALARLEQKQSRAWGPTSQDTIRNQVRKELQAEATVSGSPEAPGTNVVSEPREEGSAHLAVPGVYFTCPLTGATLRKDQRDACIKEAILLHFSTDPVAASIMKIYTFNKDQDRVKLGVDTIAKYLDNIHLHPEEEKYRKIKLQNKVFQERINCLEGTHEFFEAIGFQKVLLPAQDQEDPEEFYVLSETTLAQPQSLERHKEQLLAAEPVRAKLDRQRRVFQPSPLASQFELPGDFFNLTAEEIKREQRLRSEAVERLSVLRTKAMREKEEQRGLRKYNYTLLRVRLPDGCLLQGTFYARERLGAVYGFVRAALQSAWLPFELLASGGQKLSEDENLALNECGLVPSALLTFSWDMAVLEDIKAAGAEPDSILKPELLSAIEKLL
notes: UBXD1 (UBXN6), human, mutant in the context of recombinant UBXD1-fl
[1]
  binding result: binds

B4: UBXD1-N (1–133) (domain or fragment, human, UniProt Q9BZV1 1-133, looked up)
chain: MKKFFQEFKADIKFKSAGPGQKLKESVGEKAHKEKPNQPAPRPPRQGPTNEAQMAAAAALARLEQKQSRAWGPTSQDTIRNQVRKELQAEATVSGSPEAPGTNVVSEPREEGSAHLAVPGVYFTCPLTGATLR
modifications: Atto594 (NHS ester; the UBXD1 proteins were labeled for anisotropy)
notes: UBXD1 (UBXN6), human, N-terminus, residues 1-133; The construct is not described on its own in the methods; limits from the results; also called UBXD1 N-terminus; not shown: GST, N-terminal, cleaved
p97-N (1–199)
  Kd: 22 ± 1 µM

## {5,6‑FAM}-TEDNDDDLYG (p97/VCP, C-terminal residues 797-806)
[2]
  binding result: binds

B5: HR23b-UBL (domain or fragment)
chain: not shown
notes: HR23b (RAD23B), UBL domain; The cited NMR structure of the HR23b-UBL domain is PDB 1P1A; 15N-labelled for the reverse titration; also called HR23b-UBL wt; UBL domain of HR23b; not shown: GST, N-terminal, cleaved
UBXD1-PUB (150–264)
  Kd: 1.5 ± 0.9 mM
